Experimental data as given in publication PMC9786881 (Viruses, 2022).
“And” between values parts separate entries of the source, which are not always exact repeats. Equal values may be shown once.

B1: RABV nucleoprotein lacking its N-terminal arm (N[change], residues 24-450) (domain or fragment)
chain: DQYEYKYPAIKDLKKPCITLGKAPDLNKAYKSVLSGMNAAKLDPDDVCSYLAAAMQFFEGTCPEDWTSYGILIARKGDRITPNSLVEIKRTDVDGNWALTGGMELTRDPTVSEHASLVGLLLSLYRLSKISGQNTGNYKTNIADRIEQIFETAPFVKIVEHHTLMTTHKMCANWSTIPNFRFLAGTYDMFFSRIEHLYSAIRVGTVVTAYEDCSGLVSFTGFIKQINLTAREAILYFFHKNFEEEIRRMFEPGQETAVPHSYFIHFRSLGLSGKSPYSSNAVGHVFNLIHFVGCYMGQVRSLNATVIAACAPHEMSVLGGYLGEEFFGKGTFERRFFRDEKELQEYEAAELTKTDVALADDGTVNSDDEDYFSGETRSPEAVYTRIMMNGGRLKRSHIRRYVSVSSNHQARPNSFAEFLNKTYSNDS
B2: full-length RABV phosphoprotein (PFL) (natural protein)
chain: MSKIFVNPSAIRAGLADLEMAEETVDLINRNIEDNQAHLQGEPIEVDNLPEDMKRLHLDDEKSSNLGEMVRVGEGKYREDFQMDEGEDPNLLFQSYLDNVGVQIVRQMRSGERFLKIWSQTVEEIVSYVTVNFPNPPRRSSEDKSTQTTGRELKKETTSAFSQRESQPSKARMVAQVAPGPPALEWSATNEEDDLSVEAEIAHQIAESFSKKYKFPSRSSGIFLYNFEQLKMNLDDIVKEAKNVPGVTRLAHDGSKIPLRCVLGWVALANSKKFQLLVEADKLSKIMQDDLNRYTSC

Experiments:
[1] = target: B2; test: SEC-SAXS; conditions: both partners purified
[2] = target: the molecule itself; test: SEC-SAXS
[3] = target: B1; test: SEC-MALLS; conditions: both partners purified
[4] = target: B1; test: fluorescence polarisation; conditions: both partners purified
[5] = target: B1; test: fluorescence polarisation; conditions: both partners purified; remark: listed apart in the source

For B1, the “stoichiometry N” value [1] was 2 N molecules per P dimer and 1 N molecules per P dimer.

B2 was tested, and the “stoichiometry N” value [2] was 2.

B3: RABV phosphoprotein residues 1-68 with C-terminal His6 (P68−His6) (peptide)
chain: MSKIFVNPSAIRAGLADLEMAEETVDLINRNIEDNQAHLQGEPIEVDNLPEDMKRLHLDDEKSSNLGE
B3 gave a Kd [3] of under 1000 nM, an IC50 [4] of about 1000 nM and a Kd [5] of 8.2 ± 0.6 nM.
